Experimental data as given in patent US12286461B2, “Recombinant fused polypeptide and use thereof” (priority 2019, dated 2025).

Legend:
adenovirus = assay: Mouse pneumonia model, viral pneumonia; assay type: in vivo; settings: BALB/C mouse pneumonia model, nasal drip; average ± standard deviation
Source text: (§1) A mouse pneumonia model was successfully established by using a nasal drip method. BALB/C mice with a body weight of 18-24 g were selected, and then anesthetized with ether on day 0, day 1 and day 2, respectively, prepared Streptococcus pneumoniae bacteria solution, adenovirus concentrated solution, Mycoplasma pneumoniae, Chlamydia pneumoniae, protozoa and pneumonia fungi were slowly dropped into the nasal cavity of the mice, so that the bacteria solutions entered the trachea and bronchi, and the bacteria solutions were prevented from flowing into the esophagus during the operation to avoid inactivation of the bacteria solutions, so that the mouse pneumonia model was established. After the model was successfully established, the recombinant fused polypeptides according to the present invention were administered.

[1] = tested on: SD rats with CCl4-induced hepatic fibrosis; assay: CCl4-induced hepatic fibrosis animal model; assay type: in vivo; settings: 40% CCl4 i.p. twice a week for 8 weeks, fused polypeptides 6 mg/kg s.c. once every five days
Procedure: Modeling was performed on the rats. Each group other than the blank group was injected with 40% CCl4 intraperitoneally twice a week, the first injection was performed at 3 mL/kg, and then injection was performed at 2 mL/kg. Modeling was performed for 8 weeks to induce hepatic fibrosis. After the intraperitoneal injection of CCl4 for the fourth time, the drugs were administered according to Table 3. After induction for 8 weeks, the administration was stopped. The SD rats were dissected the next day, and blood was taken. The liver tissue was stored in a refrigerator at −80° C. for further use. The expression of HYP in the hepatic tissue of rats was detected. [table]

pneumonia fungi = assay: Mouse pneumonia model, fungal pneumonia; assay type: in vivo; settings: BALB/C mouse pneumonia model, nasal drip; average ± standard deviation
Source text: as §1

[2] = tested on: mice with myocardial fibrosis; assay: Isoprenaline-induced myocardial fibrosis animal model; assay type: in vivo; settings: BALB/c mice, isoprenaline 5 mg/kg s.c. daily for 7 days, 12 mg/kg s.c. (Table 5), after the 8th day, FIG. 5
Procedure: In the model group, the experimental mice were injected with isoprenaline (ISO) (5 mg/kg) subcutaneously on the back of the mice every day for 7 consecutive days, and the mice were injected with normal saline subcutaneously (200 μL/mouse) every day. In the blank group, normal saline was injected subcutaneously (200 μL/mouse) every day. […] After the 8th day, blood was taken and was centrifuged, the supernatant was taken, and the content of TGF-β1 in serum was detected.

protozoa = assay: Mouse pneumonia model, protozoal pneumonia; assay type: in vivo; settings: BALB/C mouse pneumonia model, nasal drip; average ± standard deviation
Source text: as §1

[3] = tested on: mice with bleomycin-induced skin fibrosis; assay: Bleomycin-induced skin fibrosis model; assay type: in vivo, C57/BL black mice; settings: C57/BL mice, bleomycin 10 μg/mL s.c. daily for 28 days, 10 mg/kg s.c. once every five days, 6 times, FIG. 6
Procedure: Bleomycin (10 μg/mL) was injected subcutaneously every day for 28 days to form skin fibrosis. During the modeling period, the administration groups were given drugs for treatment. After modeling, the mice were killed on the next day, and the skin tissue of the mouse back was taken to detect the content of HYP in the skin tissue. [table]

pulmonary infections = assay: Mouse pneumonia model, pneumonia caused by pulmonary infections; assay type: in vivo, BALB/C mice; settings: BALB/C mouse pneumonia model, nasal drip, average ± standard deviation
Source text: as §1

[4] = tested on: SD rats with bleomycin-induced pulmonary fibrosis; assay: Bleomycin-induced pulmonary fibrosis animal model; assay type: in vivo; settings: for content of TGF-β1 in serum, difference from the model group: fused polypeptides 10 mg/kg s.c. once every five days, nintedanib 25 mg/kg intragastric once a day
Procedure: SD rats were anesthetized by intraperitoneal injection of 4% chloral hydrate with a concentration of 1 mL/100 g. After anesthesia, the rats were fixed and their necks were disinfected by using cotton with 75% alcohol. The skin of the rat neck was longitudinally cut with scissors, and the fascia and muscle were longitudinally bluntly torn with tweezers to expose the trachea. A syringe was inserted into the trachea to inject 5 mg/kg bleomycin, while a blank group was injected with an equal amount of normal saline. Then a rat plate was quickly erected and rotated, the rats' breathing was observed, the neck wound was sterilized after rotation and was sewn, and an amoxicillin anti-inflammatory drug was sprinkled on the suture. After the operation, the rats were put back into a dry and clean cage for resting, waiting for awakening. The rats were awakened after about 1-2 hours, and then fed normally. On the 7th day after modeling, modeling group animals randomly fell into a model group, a Nintedanib positive drug group, recombinant fused polypeptide 1, 2, 3 and 4 dosage groups, and a normal control group, and the groups were administered separately for an administration cycle of 15 days. Living situations of rats were observed every day and their weights were weighed. After administration for 15 days, the eyeballs were removed and blood was taken, the rats were dissected, and lungs were taken. The content of TGF-β1 in serum and the content of HYP in lung tissues were detected.

[5] = tested on: SD rats with renal fibrosis; assay: Renal fibrosis animal model (ureter ligation); assay type: in vivo; settings: 6 mg/kg s.c. once every five days, after 15 days
Procedure: A renal fibrosis animal model was established. SD rats were anesthetized with 4% chloral hydrate, injected with 1 mL/100 g intraperitoneally, fixed to an operation board, and sterilized in an operation area for further use. […] Muscular layers and abdominal walls were sewed layer by layer, the suture was disinfected with alcohol. After SD rats woke up, the rats were put into a cage for feeding. In the blank group, ureter was not ligated, and other steps were the same.
Then, the animals fell into a blank group, a model group, and recombinant fused polypeptide administration groups, and the administration was started on the second day after the operation, and was performed for 15 days. After administration for 15 days, blood was taken and supernatant was taken to detect the content of TGF-β1 in serum.

Chlamydia pneumoniae = assay: Mouse pneumonia model, chlamydia pneumonia; assay type: in vivo; settings: BALB/C mouse pneumonia model, nasal drip; average ± standard deviation
Source text: as §1

Mycoplasma pneumoniae = assay: Mouse pneumonia model, mycoplasma pneumonia; assay type: in vivo; settings: BALB/C mouse pneumonia model, nasal drip; average ± standard deviation
Source text: as §1

Streptococcus pneumoniae = assay: Mouse pneumonia model, bacterial pneumonia; assay type: in vivo; settings: BALB/C mouse pneumonia model, nasal drip; average ± standard deviation
Source text: as §1

[6] = listed as recombinant fused polypeptide IV

B1: Acetyl-SDKPGGGGTSLDASIIWAMMQNGGGGLSKLAEAAAKEAAAKEAAAKEAAAKKPRCWRGEGGGGIVRRADRAAVPGGGGRGD (protein)
chain: SDKPGGGGTSLDASIIWAMMQNGGGGLSKLAEAAAKEAAAKEAAAKEAAAKKPRCWRGEGGGGIVRRADRAAVPGGGGRGD
modifications: N-acetyl
notes: Recombinant fused polypeptide Y-linker2-X expressed in 293 cells
Inhibitory effect, Viral pneumonia (adenovirus): 78.12 ± 8.27 | content of HYP in liver tissue, difference from the model group ([1]; FIG. 3, listed as Recombinant fused polypeptide 4): highly significantly different from the model group (***P<0.001) | content of HYP in liver tissue, difference from the model group ([1]; FIG. 3, listed as recombinant fused polypeptide IV): can lower the HYP content | Inhibitory effect, Fungal pneumonia (pneumonia fungi): 54.12 ± 5.12 | content of TGF-β1 in serum, difference from the model group ([2]; listed as recombinant fused polypeptide 4): significantly different from the model group (**P<0.01) | content of TGF-β1 in serum, difference from the model group [2, 6]: can lower the TGF-β1 content | Inhibitory effect, Protozoal pneumonia (protozoa): 63.45 ± 4.68 | content of HYP in skin tissue, difference from the model group ([3]; listed as recombinant fused polypeptide 4, 10 mg/kg): highly significantly different from the model group (***P<0.001) | content of HYP in skin tissue, difference from the model group ([3]; listed as recombinant fused polypeptide IV, 10 mg/kg): can lower the hydroxyproline content | Inhibitory effect, Pneumonia caused by pulmonary infections (pulmonary infections): 56.93 ± 5.28 | Inhibitory effect, Pneumonia caused by pulmonary infections (pulmonary infections; [6]): inhibitory effect | Survival rate (%) ([4]; bleomycin 5 mg/kg intratracheal, dosage 10 mg/kg (Table 2), administration cycle 15 days from day 7 after modeling): 92.9% | hydroxyproline (HYP) content in lung tissue ([4]; bleomycin pulmonary fibrosis, 10 mg/kg s.c. once every five days, after 15 days, FIG. 1): can lower the hydroxyproline content | content of TGF-β1 in serum, difference from the model group ([4]; bleomycin pulmonary fibrosis, after 15 days, FIG. 2, listed as recombinant fused polypeptide 4): significantly different from the model group (*P<0.05) | content of TGF-β1 in serum, difference from the model group ([4]; bleomycin pulmonary fibrosis, after 15 days, FIG. 2, listed as recombinant fused polypeptide IV): can lower the TGF-β1 content | content of TGF-β1 in serum, difference from the model group ([5]; FIG. 4, listed as recombinant fused polypeptide 4, 6 mg/kg): highly significantly different from the model group (***P<0.001) | content of TGF-β1 in serum, difference from the model group ([5]; FIG. 4, listed as recombinant fused polypeptide IV, 6 mg/kg): can lower the TGF-β1 content | Inhibitory effect, Chlamydia pneumonia (Chlamydia pneumoniae): 55.26 ± 6.12 | Inhibitory effect, Mycoplasma pneumonia (Mycoplasma pneumoniae): 47.30 ± 5.30 | Inhibitory effect, Bacterial pneumonia (Streptococcus pneumoniae): 48.61 ± 6.54
